Data on 79 sequences can be found in the supplement of paper PMC10126150.

± gives the standard deviation of the averaged measurements.
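Note: ATP exposure 15 min at 22 °C before imaging.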

This series has as its system ATP. The experiment in a line: switch fluorescence ratio, 500 uM ATP over buffer (Cy3 cluster intensity, sum of 5 cycles each) (fold (ratio)); higher = stronger signal-on switching upon ATP binding; sequences stand for … in TCGTCGGCAGCGTCAGATGTGTATAAGAGACAGTTTTTTTTTTTTTTTTTTTTTTTTT…TC. Particulars: aptamer strand: ATP DNA aptamer (quencher-CACCTGGGGGAGTATTGCGGAGGAAGG + anchor), 100 nM annealed; ATP concentration: 500 uM. The gist of the method:
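After annealing to 100 nM quencher-labelled ATP aptamer, Cy3-labelled switching-strand clusters on a modified Illumina MiSeq flow-cell were imaged in selection buffer. A second image followed after 15 min with 500 uM ATP at 22 °C, and five such buffer/ATP cycles were done, each separated by NaOH stripping and re-annealing. The fluorescence ratio, averaged per switch-domain sequence, is summed target-cycle over summed buffer-cycle Cy3 intensity per cluster, with clusters outside 100-1000 RFU excluded.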
Turning to TGAAGTTAGC, the switch fluorescence ratio is 0.977 ± 0.011.
Take AACTTTTATT: the switch fluorescence ratio was 1.01 ± 0.015.
Consider AAAGGAGGTC, for which the switch fluorescence ratio stood at 1.05 ± 0.033.
As for GTTATTGTTC, the switch fluorescence ratio came out at 0.975 ± 0.016.
As to TATTAAAAGA, the switch fluorescence ratio was 0.99 ± 0.03.
As for TTGGCATGGG, the figure is 0.99 ± 0.015; as for TAGATTGGAG, 0.987 ± 0.0072.
With GATTTATACT, the switch fluorescence ratio was found to be 1.06 ± 0.014.
On to TGGGTGGGGG, for which the switch fluorescence ratio was 1 ± 0.024.
Then TAGTCAGGGG, with 0.9852 ± 0.0041; and ATGCATTTTA, with 0.999 ± 0.045; and CCTTTATGGC, with 0.947 ± 0.029.
As for GGGTGGGACG, the switch fluorescence ratio was found to be 1.23 ± 0.16.
For TACTGGGGTT, the switch fluorescence ratio was 0.981 ± 0.031.
Then TTGGAATTCA, with 1.02 ± 0.071; and AAAGAGTCGT, with 0.9883 ± 0.0027; and ATTTTCGGTG, with 1.01 ± 0.024.
CTTTGATTTT: the switch fluorescence ratio amounted to 1.01 ± 0.019.
Turning to TTCGTTTTAG, the switch fluorescence ratio was found to be 0.996 ± 0.033.
For GGTTGTCTGC, the switch fluorescence ratio is 0.968 ± 0.055.
ACACTAGGTG: the switch fluorescence ratio came out at 1.42 ± 0.023.
On to AAGGGGCGTG, for which the switch fluorescence ratio was determined as 0.997 ± 0.03.
Consider AGACTCTCG, for which the switch fluorescence ratio came to 1.02 ± 0.098.
On to GTTAGAAATG, for which the switch fluorescence ratio worked out at 1.01 ± 0.011.
For the sequence TTCGGAGGGA, the switch fluorescence ratio was found to be 2.2 ± 1.5.
As for CAAATCGTTG, the figure is 0.9786 ± 0.0024.
Then ATTAGCGCCC, with 1.01 ± 0.032.
As for GCGGCTGGGG, the switch fluorescence ratio was 1.01 ± 0.057.
Consider GCCATGTTTT, for which the switch fluorescence ratio was 0.9646 ± 0.008.
GGGATTACGG: the switch fluorescence ratio was found to be 0.9899 ± 0.0051.
GGCGGGACGA: the switch fluorescence ratio is 0.973 ± 0.036.
With TTGATATCTA, the switch fluorescence ratio was 0.982 ± 0.049.
Take GACGGTTATC: the switch fluorescence ratio worked out at 1.11 ± 0.059.
For ATTATATTCT, the switch fluorescence ratio worked out at 1 ± 0.038.
As for GGTCTATTTT, the figure is 0.986 ± 0.023; as for AGGGGGGAAT, 1.03 ± 0.048.
As to TGGTCCGCTA, the switch fluorescence ratio amounted to 1.755 ± 0.011.
Turning to GTTGGTGAGT, the switch fluorescence ratio is 0.989 ± 0.015.
Regarding TAATAGGGCG, the switch fluorescence ratio was determined as 1.01 ± 0.076.
As for GCCGTAGACC, the figure is 0.9994 ± 0.0092; as for ATTACTAGTG, 1.03 ± 0.014; as for GTGGCGAAGG, 0.993 ± 0.014.
For ACTGTCATTA, the switch fluorescence ratio came to 1.08 ± 0.019.
Then CTCAATTTTA, with 0.9743 ± 0.006.
Turning to TTCTAAAGGG, the switch fluorescence ratio was 0.984 ± 0.065.
AACATGGGGC: the switch fluorescence ratio amounted to 1.02 ± 0.041.
GTTTCGGGGG: the switch fluorescence ratio is 0.9895 ± 0.006.
As for CGGTCGGTGT, the figure is 0.982 ± 0.022; as for GGGATATCGA, 0.975 ± 0.021; as for TTCGGGGGGA, 1.04 ± 0.09.
For GTGGTTAGGT, the switch fluorescence ratio stood at 1 ± 0.034.
Then TCTTAGGGGT, with 0.981 ± 0.021.
ATGTAAATGT: the switch fluorescence ratio worked out at 1.041 ± 0.0077.
TTTTCCTAGT: the switch fluorescence ratio is 1.12 ± 0.073.
CTTTGGGTGG: the switch fluorescence ratio amounted to 1.03 ± 0.058.
For CTGGTGCGCG, the switch fluorescence ratio turned out to be 0.98 ± 0.032.
As to CTGTGGGCCG, the switch fluorescence ratio turned out to be 1 ± 0.02.
Take TTAGGGTG: the switch fluorescence ratio amounted to 0.992 ± 0.03.
In the case of CGATGAATTG, the switch fluorescence ratio was found to be 0.981 ± 0.023.
Take GGGGAAAAGC: the switch fluorescence ratio came to 1.04 ± 0.014.
Take TTGGGGAGAG: the switch fluorescence ratio came to 0.991 ± 0.01.
Regarding TCAGTAAATT, the switch fluorescence ratio is 0.965 ± 0.055.
As for GATTGCACTT, the switch fluorescence ratio amounted to 1.02 ± 0.031.
For TTTCGGGGGC, the switch fluorescence ratio was 0.993 ± 0.028.
Then AAAACTTAGA, with 0.956 ± 0.041.
As to GGATCTTTGA, the switch fluorescence ratio amounted to 0.989 ± 0.027.
Take TCAGAAAGTG: the switch fluorescence ratio came to 1 ± 0.041.
Then GTTATGGGGC, with 0.966 ± 0.043; and ATGTGTCAAG, with 0.9675 ± 0.0065; and ACTTCTAGGC, with 1.02 ± 0.058.
In the case of GCGACAGATG, the switch fluorescence ratio was found to be 1.01 ± 0.027.
As for AGATTTAAGT, the switch fluorescence ratio came to 0.985 ± 0.022.
GATGACCTCA: the switch fluorescence ratio was 0.998 ± 0.093.
As to CGATTGCATG, the switch fluorescence ratio turned out to be 1.05 ± 0.017.
On to GTATATATAT, for which the switch fluorescence ratio was 0.979 ± 0.028.
For GTTTTGCGAA, the switch fluorescence ratio amounted to 0.9957 ± 0.0086.
Regarding TTTTTATCGT, the switch fluorescence ratio was found to be 1.02 ± 0.017.
For TTGTATAAGG, the switch fluorescence ratio turned out to be 1 ± 0.015.
TTGGGTCAAC: the switch fluorescence ratio stood at 1.05 ± 0.014.
